Laboratory results taken from US12098176B2, “Keratin BD-4, preparation method, and pharmaceutical composition and use thereof” (Institute of Materia Medica, Chinese Academy of Medical …, priority 2019, dated 2024).

Columns and labels:
[1] = tested on: acetic acid writhing of ICR mice; test: Acetic acid writhing test in ICR mice; type: in vivo, mouse; conditions: for Number of twists / Writhing latency: 0.6% acetic acid i.p., within 15 minutes
Procedure: Experimental example 7 The pharmacodynamic test of protein BD-4 (Example 4 protein) on acetic acid writhing in ICR mice. Animals: male ICR mice; Drugs and reagents: aspirin, physiological saline, glacial acetic acid, protein BD-4. Experiment Grouping:
One day after the experimental animals adapt to the environment, Aspirin 300 mg/kg, protein BD-4 50 mg/kg, 200 mg/kg were given orally one hour in advance, and the administration volume was 10 ml/kg; Then, 0.6% acetic acid solution was injected into the abdominal cavity, and the latency period (seconds) and frequency of writhing in the animal was observed within 15 minutes.
Calculate the mean and standard error of the data in each group. Compared with the model group by TTEST, P<0.05 was considered as statistically different.
0.6% acetic acid solution was injected into the abdominal cavity of mice, which caused deep and large area and long-term painful stimulation, causing the mice to writhe (the abdomen was contracted into an “S” shape, the trunk and hind legs were stretched, the buttocks were raised and the hips Row). The incubation time and the number of times the mice began to writhe were used as the pain response index to determine whether the test sample had analgesic effect. […] Compared with the model group, P<0.05, which is statistically significant.

[2] = tested on: mice cough induced by ammonia water; test: Antitussive test, cough induced by ammonia water in mice; type: in vivo, mouse; conditions: for Incubation period: cough latency; for Incubation period / Number of coughs: X ± SEM; for Number of coughs: within 2 minutes
Procedure: Experimental example 6 The effect of protein BD-4 (Example 4 protein) on the antitussive effect of the cough induced by ammonia water in mice. Animals: male ICR mice; Drugs and reagents: dextromethorphan hydrobromide, ammonia, 0.2% CMC-Na, protein BD-4; Apparatus: Compressed nebulizer (403T type), balance (XS105DU type). Experiment Grouping: • Solvent control group; • Dextromethorphan 15 mg/kg group; • Protein BD-4, 20 mg/kg group, 50 mg/kg group. Method: Model Preparation and Administration:
Dextromethorphan and different doses of protein BD-4 (administration volume 10 ml/kg) were given orally in groups, and the solvent control group was given the same volume of distilled water. One hour later, it was put into a sealed box and atomized 10% ammonia water for 10 seconds, and then observed and recorded the incubation period of cough in mice and the number of coughs in 2 minutes.
Record the time point of oral administration, the time point of atomization experiment, the incubation period of mice cough and the number of coughs within 2 minutes, respectively. The incubation period of cough refers to the number of seconds from the start of the atomization of ammonia to the occurrence of cough. The performance of coughing in mice is based on contraction of their abdominal muscles (breast contraction) and opening their mouths at the same time. Calculate the mean and standard error of each group of data, use TTEST to compare the model group with other groups, and P<0.05 is considered as a significant difference.

[3] = tested on: lipopolysaccharide (LPS) induced fever in rats; test: Lipopolysaccharide (LPS) induced fever in SD rats; type: in vivo, rat; conditions: for Body temperature 2 hours after modeling: 2 h after LPS 20 μg/kg i.p.; for Body temperature 4 hours after modeling: 4 h after LPS 20 μg/kg i.p.; for Body temperature 6 hours after modeling: 6 h after LPS 20 μg/kg i.p.; for Body temperature 8 hours after modeling: 8 h after LPS 20 μg/kg i.p.
Procedure: Experimental example 2 The pharmacodynamic test of protein BD-4 (Example 4 protein) on lipopolysaccharide (LPS) induced fever in SD rats.
Experiment Grouping: • Model group: lipopolysaccharide fever model; • Positive control group: Aspirin 300 mg/kg group, • Protein BD-4, 10 mg/kg group, 50 mg/kg group. Method: the method of intraperitoneal injection of Lipopolysaccharide to create fever model in rats.
Preparation of experimental animals: After the experimental animals adapt to the experimental environment (temperature 22° C.±2° C., relative humidity 50%±2%) for 1 day. Pre-adaptation to measure rectal temperature at 8:00 and 15:00, Rats were fasted and water was taken freely 12 h before experiment. before the experiment, let the animal to empty its feces before measuring the rectal temperature. Apply petroleum jelly to the electronic thermometer probe before each temperature measurement. Insert the rat rectum 2 cm (can be marked at 2 cm to ensure that the depth of each insertion is consistent), and record the body temperature after the reading is stable.
Intraperitoneal injection of lipopolysaccharide to replicate rat fever model: The body temperature of the rats was measured before modeling. Qualified rats with a body temperature of 36.2-37.3° C. were selected and randomly divided into groups with 8 rats in each group. After oral administration of aspirin and different doses of protein BD-4, lipopolysaccharide (20 μg/kg, 2 ml/kg) was injected intraperitoneally immediately, and the normal control group was injected intraperitoneally with an equal volume of normal saline. the rats' body temperature was monitored after 2 hours for a total of 8 hours.
According to the body temperature measured at each time point on the day of the experiment, calculate the mean, standard deviation and standard error of the body temperature of each group of rats. The data of each group was compared with TTEST, and P<0.05 was considered as a significant difference.

B1: BD-4: recombinant keratin, amino acid sequence SEQ ID NO: 1, expressed in E. coli; the protein of Example 4 was tested (protein, listed as Bos taurus)
chain: MSYSCCLPNLSFRSSCSSRPCVPSSCCGTTLPGACNIPANVGSCNWFCEGSFNGSEKETMQFLNDRLASYLEKVRQLERDNAELESRILERSQQQEPLVCPNYQSYFRTIEELQQKILCSKSENARLVVQIDNAKLASDDFRTKYETEVSLRQLVEADLNGLRRILDELTLCKSDLEARVESLKEELICLKQNHEQEVNTLRSQLGDRLNVEVDAAPTVDLNRVLNETRAQYEALVETNRRDVEEWYIRQTEELNKQVVSSSEQLQSYQAEIIELRRTVNALEVELQAQHNLRDSLENTLTETEARYSCQLAQVQGLIGNVESQLAEIRSDLERQNQEYQVLLDVRARLECEINTYRGLLDSEDCKLPCNPCATTNACERPCISNPCVSRARCGPCNTFVH
[1]; 50 mg/kg oral
  Number of twists: 16.9 ± 3.7 times
  Writhing latency: 315.2 ± 66.3 s
[1]; 50 mg/kg, P<0.05
  Number of writhing times vs model group: significantly reduce the number of writhing times
[1]; 200 mg/kg oral
  Number of twists: 25.1 ± 3.3 times
  Writhing latency: 220.1 ± 16.6 s
[2]; 20 mg/kg oral
  Incubation period: 34.0 ± 2.4 s
  Number of coughs: 55.9 ± 3.5
[2]; 20 mg/kg, P<0.05
  Cough incubation period vs solvent control group: significant improvement
  Number of coughs vs solvent control group: significant improvement
[2]; 50 mg/kg oral
  Incubation period: 33.2 ± 3.9 s
  Number of coughs: 62.1 ± 3.7
[2]; 50 mg/kg, P<0.05
  Number of coughs vs solvent control group: significant improvement
[3]; 10 mg/kg and 50 mg/kg, after modeling
  Effect on body temperature of model rats: tendency to lower the body temperature of model rats after modeling, but it is not statistically significant
[3]; 10 mg/kg oral
  Body temperature 2 hours after modeling: 37.7 ± 0.1 °C
  Body temperature 4 hours after modeling: 37.8 ± 0.l
  Body temperature 6 hours after modeling: 37.8 ± 0.2 °C
  Body temperature 8 hours after modeling: 37.5 ± 0.2 °C
[3]; 50 mg/kg oral
  Body temperature 2 hours after modeling: 37.6 ± 0.2 °C
  Body temperature 4 hours after modeling: 37.7 ± 0.2 °C
  Body temperature 6 hours after modeling: 37.6 ± 0.2 °C
  Body temperature 8 hours after modeling: 37.5 ± 0.1 °C
